Results from publication PMC9482650, “Quantitative fragmentomics allow affinity mapping of interactomes” (Nature Communications, 2022).

How the values were obtained:
Assay in all cases: holdup assay
Design in all cases: key: below the threshold = too weak to quantify, mostly under pKd 3.1 to 4
[1] = target: SCRIB_3, Q14160
[2] = target: MAGI1_2, Q96QZ7
[3] = target: LNX1_1, Q8TBB1
[4] = target: MAGI2_3, Q86UL8
[5] = target: T1, HTRA4, P83105
T1 sequence (P83105 378-476, limits assumed, looked up): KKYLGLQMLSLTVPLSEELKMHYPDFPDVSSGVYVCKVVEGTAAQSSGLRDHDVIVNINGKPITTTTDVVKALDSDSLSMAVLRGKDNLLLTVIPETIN

[6] = target: T2, NHERF3_4, Q5T2W1
T2 sequence (Q5T2W1 373-468, limits assumed, looked up): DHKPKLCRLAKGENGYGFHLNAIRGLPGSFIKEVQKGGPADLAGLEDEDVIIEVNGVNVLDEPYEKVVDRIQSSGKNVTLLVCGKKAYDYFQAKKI

[7] = target: DLG4_1, P78352
DLG4_1, P78352, sequence (P78352 62-152): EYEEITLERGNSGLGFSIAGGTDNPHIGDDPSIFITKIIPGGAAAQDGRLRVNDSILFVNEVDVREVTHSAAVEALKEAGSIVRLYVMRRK

[8] = target: PICK1, Q9NRD5
PICK1, Q9NRD5, sequence (Q9NRD5 17-115): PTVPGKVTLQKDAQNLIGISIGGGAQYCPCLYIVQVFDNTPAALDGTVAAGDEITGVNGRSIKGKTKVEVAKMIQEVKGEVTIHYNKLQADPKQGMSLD

[9] = target: T3, MPP7, Q5T2T1
T3 sequence (Q5T2T1 134-230, limits assumed, looked up): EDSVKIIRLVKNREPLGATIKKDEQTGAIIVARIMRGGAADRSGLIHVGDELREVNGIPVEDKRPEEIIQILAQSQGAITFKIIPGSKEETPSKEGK

[10] = target: T4, PDZRN3_1, Q9UPQ7
T4 sequence (Q9UPQ7 244-349, limits assumed, looked up): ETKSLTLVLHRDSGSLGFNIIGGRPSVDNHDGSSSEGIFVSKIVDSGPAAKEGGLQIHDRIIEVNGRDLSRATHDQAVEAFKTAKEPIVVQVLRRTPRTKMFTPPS

[11] = target: T5, LIN7A, O14910
T5 sequence (O14910 103-200, limits assumed, looked up): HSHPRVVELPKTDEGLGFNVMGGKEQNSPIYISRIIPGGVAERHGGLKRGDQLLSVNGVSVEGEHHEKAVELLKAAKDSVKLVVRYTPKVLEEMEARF

[12] = target: Inadl_3, Q8NI35
Inadl_3, Q8NI35, sequence (Q8NI35 359-469): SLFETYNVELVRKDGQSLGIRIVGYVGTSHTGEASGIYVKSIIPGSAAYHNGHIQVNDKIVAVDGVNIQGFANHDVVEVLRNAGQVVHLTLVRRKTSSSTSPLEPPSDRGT

[13] = target: MAST1, Q9Y2H9
MAST1, Q9Y2H9, sequence (Q9Y2H9 962-1065): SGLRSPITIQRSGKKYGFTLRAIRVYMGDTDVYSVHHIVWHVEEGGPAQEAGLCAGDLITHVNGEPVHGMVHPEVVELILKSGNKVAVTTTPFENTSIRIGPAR

[14] = target: NHERF2_2, Q15599
NHERF2_2, Q15599, sequence (Q15599 142-238): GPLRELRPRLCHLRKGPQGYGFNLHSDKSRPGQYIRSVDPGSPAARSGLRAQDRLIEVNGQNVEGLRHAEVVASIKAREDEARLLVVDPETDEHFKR

[15] = target: NHERF4_2, Q86UT5
NHERF4_2, Q86UT5, sequence (Q86UT5 220-308): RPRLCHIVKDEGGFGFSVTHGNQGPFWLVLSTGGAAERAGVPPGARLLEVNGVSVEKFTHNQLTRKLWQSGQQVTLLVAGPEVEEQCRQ

[16] = target: Inadl_9, Q8NI35
Inadl_9, Q8NI35, sequence (Q8NI35 1530-1615): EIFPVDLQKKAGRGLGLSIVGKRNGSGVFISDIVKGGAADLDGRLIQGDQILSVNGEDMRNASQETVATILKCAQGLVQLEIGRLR

[17] = target: T6, SNTG2, Q9NY99
T6 sequence (Q9NY99 68-166, limits assumed, looked up): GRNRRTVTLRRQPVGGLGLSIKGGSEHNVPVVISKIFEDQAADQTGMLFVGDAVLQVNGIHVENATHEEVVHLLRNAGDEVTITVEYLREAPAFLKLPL

[18] = target: IL16_3, Q14005
IL16_3, Q14005, sequence (Q14005 1107-1207): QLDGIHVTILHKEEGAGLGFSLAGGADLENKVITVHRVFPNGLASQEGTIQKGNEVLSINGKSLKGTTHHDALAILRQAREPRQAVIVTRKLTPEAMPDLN

[19] = target: HTRA1, Q92743
HTRA1, Q92743, sequence (Q92743 360-477): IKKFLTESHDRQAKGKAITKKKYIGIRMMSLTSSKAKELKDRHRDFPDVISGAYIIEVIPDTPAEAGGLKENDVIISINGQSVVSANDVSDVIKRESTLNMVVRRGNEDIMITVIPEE

[20] = target: MAGI2_5, Q86UL8
MAGI2_5, Q86UL8, sequence (Q86UL8 915-1017): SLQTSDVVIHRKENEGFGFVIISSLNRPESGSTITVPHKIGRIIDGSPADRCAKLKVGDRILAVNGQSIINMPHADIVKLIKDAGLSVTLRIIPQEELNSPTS

[21] = target: T7, DLG3_2, Q92796
T7 sequence (Q92796 221-321, limits assumed, looked up): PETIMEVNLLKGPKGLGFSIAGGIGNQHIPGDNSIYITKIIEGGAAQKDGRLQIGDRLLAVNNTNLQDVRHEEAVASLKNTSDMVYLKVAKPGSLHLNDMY

[22] = target: T8, SNTG1, Q9NSN8
T8 sequence (Q9NSN8 52-150, limits assumed, looked up): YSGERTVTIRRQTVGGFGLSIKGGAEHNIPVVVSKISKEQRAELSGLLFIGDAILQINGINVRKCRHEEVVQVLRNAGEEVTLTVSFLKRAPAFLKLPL

[23] = target: FRMPD4, Q14CM0
FRMPD4, Q14CM0, sequence (Q14CM0 67-160): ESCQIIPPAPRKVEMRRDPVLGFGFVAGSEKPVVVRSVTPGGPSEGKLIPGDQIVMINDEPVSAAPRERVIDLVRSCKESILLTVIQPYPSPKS

[24] = target: T9, RAPGEF6, Q8TEU7
T9 sequence (Q8TEU7 525-625, limits assumed, looked up): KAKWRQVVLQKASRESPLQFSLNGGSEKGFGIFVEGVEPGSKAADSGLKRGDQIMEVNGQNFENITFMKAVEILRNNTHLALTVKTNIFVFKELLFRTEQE

[25] = target: LIMK2, P53671
LIMK2, P53671, sequence (P53671 143-248): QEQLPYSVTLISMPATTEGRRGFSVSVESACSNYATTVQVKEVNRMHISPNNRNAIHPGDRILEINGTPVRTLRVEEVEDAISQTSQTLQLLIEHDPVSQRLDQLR

[26] = target: T10, PARD3B_1, Q8TEW8
T10 sequence (Q8TEW8 196-299, limits assumed, looked up): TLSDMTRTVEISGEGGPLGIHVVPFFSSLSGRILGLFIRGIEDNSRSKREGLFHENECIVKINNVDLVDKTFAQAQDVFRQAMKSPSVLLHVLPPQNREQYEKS

[27] = target: GRIP2_7, Q9C0E4
GRIP2_7, Q9C0E4, sequence (Q9C0E4 934-1023): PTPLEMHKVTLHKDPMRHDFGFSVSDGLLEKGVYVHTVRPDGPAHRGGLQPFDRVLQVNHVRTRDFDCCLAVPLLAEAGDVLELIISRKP

[28] = plain residues with an end cap or a label only (N-terminal biotin on a linker: ado-ado)
[29] = plain residues with an end cap or a label only (N-terminal biotin on a linker: ahx)
[30] = plain residues with an end cap or a label only (N-terminal biotin on a linker: ttds)

MAGI2_3, Q86UL8, sequence (Q86UL8 600-682): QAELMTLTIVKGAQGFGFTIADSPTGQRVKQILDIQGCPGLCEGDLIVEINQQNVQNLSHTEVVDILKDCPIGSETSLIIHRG
SCRIB_3, Q14160, sequence (Q14160 999-1103): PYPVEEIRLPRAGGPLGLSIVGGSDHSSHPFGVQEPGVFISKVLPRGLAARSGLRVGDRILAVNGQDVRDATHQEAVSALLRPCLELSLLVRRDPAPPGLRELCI
MAGI1_2, Q96QZ7, sequence (Q96QZ7 456-580): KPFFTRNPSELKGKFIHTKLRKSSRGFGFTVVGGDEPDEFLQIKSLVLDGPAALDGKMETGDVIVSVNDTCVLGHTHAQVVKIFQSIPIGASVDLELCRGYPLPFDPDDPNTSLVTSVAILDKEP
LNX1_1, Q8TBB1, sequence (Q8TBB1 261-371): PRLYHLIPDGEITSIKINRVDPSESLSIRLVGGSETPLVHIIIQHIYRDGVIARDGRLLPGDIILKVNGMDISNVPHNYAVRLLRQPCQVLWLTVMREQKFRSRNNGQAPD

For TETASVCTKV [SLC23A1, Q9UHI7], the pKd [1, 28] was 3.59, the pKd [2, 28] was “below the threshold” and the pKd [3, 28] was 3.73. For the same binder, the pKd [4, 28] was 4.16, the pKd [5, 28] was 4.15 and the pKd [6, 28] was 3.7. The pKd [7, 28] was 3.9, the pKd [8, 28] was 4.24 and the pKd [9, 28] was “below the threshold”. For the same binder, the pKd [10, 28] was 3.53, the pKd [11, 28] was “below the threshold” and the pKd [12, 28] was “below the threshold”. The pKd [13, 28] was 4.85, the pKd [14, 28] was 4.16 and the pKd [15, 28] was “below the threshold”. The pKd [16, 28] was “below the threshold”, the pKd [17, 28] was 3.82 and the pKd [18, 28] was “below the threshold”. For the same binder, the pKd [19, 28] was 3.73, the pKd [20, 28] was 4.46 and the pKd [21, 28] was 4.02. The pKd [22, 28] was 3.76, the pKd [23, 28] was “below the threshold” and the pKd [24, 28] was “below the threshold”. For the same binder, the pKd [25, 28] was “below the threshold”, the pKd [26, 28] was 3.61 and the pKd [27, 28] was “below the threshold”.

In the case of QGRWDHETIV [TMEM215, Q68D42], the pKd [1, 29] is reported as 4.06, the pKd [2, 29] is reported as 3.84 and the pKd [3, 29] is reported as 4.17. For the same binder, the pKd [4, 29] was 3.77, the pKd [5, 29] was 3.53 and the pKd [6, 29] was 3.52. It also gave a pKd [7, 29] of 4.68, a pKd [8, 29] of 4.06 and a pKd [9, 29] of 3.63. The pKd [10, 29] was 3.73, the pKd [11, 29] was “below the threshold” and the pKd [12, 29] was 4.42. For the same binder, the pKd [13, 29] was 4.3, the pKd [14, 29] was “below the threshold” and the pKd [15, 29] was “below the threshold”. The pKd [16, 29] was 3.92, the pKd [17, 29] was 4.58 and the pKd [18, 29] was “below the threshold”. For the same binder, the pKd [19, 29] was 5, the pKd [20, 29] was 4.44 and the pKd [21, 29] was 4.8. For the same binder, the pKd [22, 29] was 4.7, the pKd [23, 29] was 3.6 and the pKd [24, 29] was “below the threshold”. For the same binder, the pKd [25, 29] was “below the threshold”, the pKd [26, 29] was 3.57 and the pKd [27, 29] was “below the threshold”.

For RTRQRNETQV [HPV51-E6, P26554], the pKd [1, 30] was 4.17, the pKd [2, 30] was 5.93 and the pKd [3, 30] was “below the threshold”. The pKd [4, 30] was 4.02, the pKd [5, 30] was “below the threshold” and the pKd [6, 30] was “below the threshold”. The pKd [7, 30] was 4.9, the pKd [8, 30] was “below the threshold” and the pKd [9, 30] was “below the threshold”. The pKd [10, 30] was 4.06, the pKd [11, 30] was “below the threshold” and the pKd [12, 30] was “below the threshold”. For the same binder, the pKd [13, 30] was 4.23, the pKd [14, 30] was “below the threshold” and the pKd [15, 30] was “below the threshold”. For the same binder, the pKd [16, 30] was “below the threshold”, the pKd [17, 30] was 4.22 and the pKd [18, 30] was “below the threshold”. For the same binder, the pKd [19, 30] was “below the threshold”, the pKd [20, 30] was 4.12 and the pKd [21, 30] was 5.1. For the same binder, the pKd [22, 30] was 3.98, the pKd [23, 30] was “below the threshold” and the pKd [24, 30] was “below the threshold”. For the same binder, the pKd [25, 30] was “below the threshold”, the pKd [26, 30] was “below the threshold” and the pKd [27, 30] was 3.48.

With DPRNTQTSQI [ABRAXAS2, Q15018] the pKd [1, 30] was 4.01, the pKd [2, 30] was 3.52 and the pKd [3, 30] was “below the threshold”. The pKd [4, 30] was “below the threshold”, the pKd [5, 30] was 3.48 and the pKd [6, 30] was “below the threshold”. For the same binder, the pKd [7, 30] was 3.65, the pKd [8, 30] was “below the threshold” and the pKd [9, 30] was “below the threshold”. For the same binder, the pKd [10, 30] was 3.54, the pKd [11, 30] was “below the threshold” and the pKd [12, 30] was “below the threshold”. The pKd [13, 30] was 4.32, the pKd [14, 30] was 3.6 and the pKd [15, 30] was “below the threshold”. The pKd [16, 30] was “below the threshold”, the pKd [17, 30] was 3.7 and the pKd [18, 30] was “below the threshold”. For the same binder, the pKd [19, 30] was 3.64, the pKd [20, 30] was “below the threshold” and the pKd [21, 30] was 3.81. The pKd [22, 30] was “below the threshold”, the pKd [23, 30] was “below the threshold” and the pKd [24, 30] was “below the threshold”. For the same binder, the pKd [25, 30] was “below the threshold”, the pKd [26, 30] was 3.69 and the pKd [27, 30] was 3.55.
